{
  "source": "patent US10745461B2",
  "about": "“Pulsed introduction of low-dose RANKL as a therapy for diet-induced atherosclerosis” (Saint Louis University, priority 2015, dated 2020)",
  "molecules": {"B1": {"name": "receptor activator of NF-κB ligand (protein, UniProt O35235 139-316, looked up)", "Tumor necrosis factor ligand …": "FSGAPAMMEGSWLDVAQRGKPEAQPFAHLTINAASIPSGSHKVTLSSWYHDRGWAKISNMTLSNGKLRVNQDGFYYLYANICFRHHETSGSVPTDYLQLMVYVVKTSIKIPSSHNLMKGGSTKNWSGNSEFHFYSINVGGFFKLRAGEEISIQVSNPSLLDPDQDATYFGAFKVQDID", "modifications": "GST tag"}},
  "key": {"[1]": {"system": "atherosclerotic lesions in the aortic root", "assay": "WD-fed ovariectomized LDLR-/- and WT mice dosed with saline or IdRANKL: weight, cholesterol, atheroma, BV/TV", "type": "in vivo", "conditions": "for atheroprotection / effects of OVX on atherogenesis / bone loss (BV/TV): LDLR-/- and WT mice; for reduction of plaque size compared to non-treated animals: WD, OVX; for body weight gain: ovariectomized WD-fed LDLR-/- and WT mice", "procedure": "Ovariectomized (OVX) mice were treated with saline control or pulsed low-dose RANKL at 3 and 7 weeks post-OVX. RANKL was administered at 0.125 mg/kg twice at 0 and 24 hours for each treatment time point.\nIn order to define the contributions of menopause, LDL-cholesterol, and diet to postmenopausal morbidities, 10-week-old wild-type (WT) and (LDLR−/−) mice were placed on normal (ND) or western (WD) diet and we performed sham-surgery or ovariectomy two weeks after die diet switch. This regimen is intended to mimic the conditions of patients, who presumably already have fatty streaks in their vasculature by the time menopause ensues. All animals were sacrificed at 19 weeks of age, when hearts, long bones, and blood were collected.\n(§1) It has been previously shown that low-dose RANKL (IdRANKL) induces TcREG in bone marrow. We postulated that induction of TcREG might be atheroprotective as it protects against osteoporosis in ovariectomized mice. To test that proposal, we first tested the ability of IdRANKL to modulate the systemic availability of proinflammatory cytokines. Thus, a new group of WT mice were fed WD, and subjected to sham or OVX surgeries, then dosed with saline or IdRANKL (two i.p. injections 3 and 7 weeks after OVX). […] We then, measured the ability of freshly isolated T-cells from peripheral blood to produce IL-17A and TNFα. […] Zoledronate is a bisphosphonate that is used clinically to prevent bone resorption (by suppressing osteoclasts). […] Without being limited to any particular theory of operation, we hypothesize that these cells contribute to postmenopausal comorbidities such as atherosclerosis and osteoporosis, and that immunosuppressing therapies such as pulsed IdRANKL will have cardio- and osteo-protective effects.\nTo test this hypothesis, a new group of LDLR−/− and WT mice were fed WD and ovariectomized as discussed previously, and dosed with saline or IdRANKL as above. […] The underlying mechanism for this limiting weight-gain following induction of TcREG is not known, but warrants further study. […] This beneficial effect was more pronounced in WI mice, where plaques were reduced by 80% in size, compared to non-treated animals. In LDLR−/− mice, the reduction was more modest at 35%. […] We conclude that IdRANKL likely exerts protective effects in the aorta and the bone via TcReG-mediated suppression of TEFF proinflammatory activity (e.g. production of IL-17A and TNFα)."}, "IL-17A and TNFα": {"system": "IL-17A and TNFα", "assay": "WD-fed ovariectomized WT mice: TcREG and IL-17A/TNFα production by peripheral blood T-cells", "type": "in vivo", "conditions": "for peripheral blood T-cells that express TNFα and/or IL-17A (flow cytometry) / IL-17A and TNFα produced by freshly isolated peripheral blood cells (ELISA): WD-fed OVX WT mice", "from_the_text": "as §1"}},
  "data": [
    {"molecule": "B1", "values": [
      {"measurement": "atheroprotection / effects of OVX on atherogenesis", "setting": "[1]", "result": "eliminated the effects of OVX on both osteoporosis and atherogenesis"},
      {"measurement": "total cholesterol in serum", "setting": "[1]; LDLR-/- and WT mice (FIG. 20G)", "result": "does not significantly alter total cholesterol in serum"},
      {"measurement": "atheroprotection / effects of OVX on atherogenesis", "setting": "[1]; listed as IdRANKL", "result": "atheroprotective"},
      {"measurement": "bone loss (BV/TV)", "setting": "[1]; listed as IdRANKL", "result": "pronounced effect on preventing osteoporosis"},
      {"measurement": "bone loss (BV/TV)", "setting": "[1]; listed as low-dose RANKL", "result": "prevents bone loss"},
      {"measurement": "serum cholesterol", "setting": "[1]; LDLR-/- mice", "result": "slightly decreased"},
      {"measurement": "reduction of plaque size compared to non-treated animals", "setting": "[1]; LDLR-/- mice", "result": 35, "unit": "%"},
      {"measurement": "reduction of plaque size compared to non-treated animals", "setting": "[1]; WT mice", "result": 80, "unit": "%"},
      {"measurement": "body weight gain", "setting": "[1]; listed as IdRANKL", "result": "ameliorated body weight gain"},
      {"measurement": "body weight gain", "setting": "[1]; listed as low-dose RANKL", "result": "reduces body gain weight"},
      {"measurement": "peripheral blood T-cells that express TNFα and/or IL-17A (flow cytometry)", "setting": "IL-17A and TNFα", "result": "abrogates OVX-induced increase in peripheral blood T-cells that express TNFα and/or IL-17A"},
      {"measurement": "IL-17A and TNFα produced by freshly isolated peripheral blood cells (ELISA)", "setting": "IL-17A and TNFα; listed as IdRANKL", "result": "abrogated the ability of circulating T-cells to secrete IL-17A, TNFα, or both"},
      {"measurement": "peripheral blood T-cells that express TNFα and/or IL-17A (flow cytometry)", "setting": "IL-17A and TNFα; listed as IdRANKL", "result": "prevented such increase"},
      {"measurement": "IL-17A and TNFα produced by freshly isolated peripheral blood cells (ELISA)", "setting": "IL-17A and TNFα; listed as low-dose RANKL", "result": "abrogates OVX-induced increase in TNFα and IL-17A expression"},
      {"measurement": "numbers of CD8+ FoxP3+ cells in the bone marrow", "setting": "IL-17A and TNFα; WD-fed WT mice, two i.p. injections 3 and 7 weeks after OVX", "result": "increased"}
    ]}
  ]
}
